Measured values: the supplement of paper PMC7877785
± gives the uncertainty stated by the source.

Assay: self-splicing fitness, log relative to wild type (ln ratio); higher = more splicing; Tetrahymena group I intron in knt gene, E. coli kanamycin selection, DiMSum; sequences stand for … in CUCUCU…GGAGGGAAAAGUUAUCAGGCAUGCACCUGGUAGCUAGUCUUUAAACCAAUAGAUUGCAUCGGUUUAAAAGGCAAGACCGUCAAAUUGCGGGAAAGGGGUCAACAGCCGUUCAGUACCAAGUCUCAGGGGAAACUUUGAGAUGGCCUUGCAAAGGGUAUGGUAAUAAGCUGACGGACAUGGUCCUAACCACGCAGCCAAGUCCUAAGUCAACAGAUCUUCUGUUGAUAUGGAUGCAGUUCACAGACUAAAUGUCGGUCGGGGAAGAUGUAUUCUUCUCAUAAGAUAUAGUCGGACCUCUCCUUAAUGGGAGCUAGCGGAUGAAGUGAUGCAACACUGGAGCCGCUGGGAACUAAUUUGUAUGCGAAAGUAUAUUGAUUAGUUUUGGAGUACUCGUGGUCG
Procedure, shortened: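 Fitness was computed with DiMSum as the error-weighted combination of replicate fold changes, kanamycin versus none, each normalised to wild type. The library randomised all eight intron nucleotides of the P1ex region, with the intron placed in the knt kanamycin-resistance gene on pET-22b(+) in E. coli BL21(DE3). Six replicate transformations were grown overnight at 37°C or 30°C on LB agar with or without 25 μg/mL kanamycin, plus 100 μg/mL carbenicillin, 50 μM IPTG and 0.2% rhamnose. Pooled colonies were amplicon-sequenced on an Illumina HiSeq 2500.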

| Sequence | self-splicing fitness (ln) (30 °C) | self-splicing fitness (ln) (37 °C) |
| --- | --- | --- |
| AGUUAGCAAUAUUACGGAGU | -3.29 ± 0.3 | -1.3 ± 0.2 |
| AGUUAGCAAUAUUACGGAUC | -1.01 ± 0.13 | -1.09 ± 0.18 |
| AGUUAGCAAUAUUACGGCAC | -1.47 ± 0.16 | -1.82 ± 0.25 |
| AGUUAGCAAUAUUACGGCCA | -0.965 ± 0.16 | 0.403 ± 0.29 |
| AGUUAGCAAUAUUACGGCCU | -0.544 ± 0.11 | 0.22 ± 0.13 |
| AGUUAGCAAUAUUACGGUAU | -2.69 ± 0.13 | -1.34 ± 0.13 |
| AGUUAGCAAUAUUACGGUCC | -0.223 ± 0.14 | -0.259 ± 0.19 |
| AUAAAGCAAUAUUACGAAAA | -1.4 ± 0.091 | -0.609 ± 0.11 |
| AUAAAGCAAUAUUACGAGGG | -3.4 ± 0.15 | -1.64 ± 0.12 |
| AUAAAGCAAUAUUACGAUCG | -0.0352 ± 0.072 | 0.19 ± 0.097 |
| AUAAAGCAAUAUUACGCUAA | -0.787 ± 0.11 | -0.736 ± 0.14 |
| AUAAAGCAAUAUUACGCUAU | -1.28 ± 0.089 | -0.692 ± 0.098 |
| AUAAAGCAAUAUUACGCUCA | 0.119 ± 0.11 | -0.112 ± 0.12 |
| AUAAAGCAAUAUUACGGACU | -0.0332 ± 0.073 | 0.654 ± 0.092 |
| AUAAAGCAAUAUUACGGAGA | -3.18 ± 0.19 | -1.86 ± 0.19 |
| AUAAAGCAAUAUUACGGGUA | -0.752 ± 0.082 | -1.06 ± 0.1 |
| AUAAAGCAAUAUUACGGUCA | 0.0241 ± 0.071 | 0.459 ± 0.1 |
| AUAAAGCAAUAUUACGUAGU | -1.9 ± 0.12 | -0.946 ± 0.17 |
| AUAAAGCAAUAUUACGUAUG | -2.13 ± 0.097 | -1.34 ± 0.12 |
| AUAAAGCAAUAUUACGUCAC | -3.46 ± 0.14 | -3.09 ± 0.2 |
| AUAAAGCAAUAUUACGUCCU | 0.13 ± 0.054 | 0.82 ± 0.079 |
| AUACAGCAAUAUUACGAGCU | -1.51 ± 0.1 | -1.26 ± 0.11 |
| AUACAGCAAUAUUACGAUCA | -0.716 ± 0.086 | -0.37 ± 0.093 |
| AUACAGCAAUAUUACGAUGG | -3.04 ± 0.18 | -2.35 ± 0.23 |
| AUACAGCAAUAUUACGAUUG | -3.14 ± 0.14 | -2.59 ± 0.2 |

| Sequence | self-splicing fitness (ln) (30 °C) | self-splicing fitness (ln) (37 °C) |
| --- | --- | --- |
| AUACAGCAAUAUUACGCAAU | -1.93 ± 0.15 | -1.02 ± 0.16 |
| AUACAGCAAUAUUACGCACU | -0.66 ± 0.11 | 0.0538 ± 0.14 |
| AUACAGCAAUAUUACGCAUU | -1.85 ± 0.088 | -1.4 ± 0.11 |
| AUACAGCAAUAUUACGCGAA | -1.42 ± 0.12 | -0.301 ± 0.12 |
| AUACAGCAAUAUUACGCUGA | -2.14 ± 0.099 | -0.86 ± 0.1 |
| AUACAGCAAUAUUACGGCAC | -1.18 ± 0.087 | -0.127 ± 0.12 |
| AUACAGCAAUAUUACGGUGG | -2.95 ± 0.11 | -2.92 ± 0.15 |
| AUACAGCAAUAUUACGUACC | -0.828 ± 0.11 | -0.283 ± 0.15 |
| AUACAGCAAUAUUACGUAGC | -3.19 ± 0.21 | -2.45 ± 0.23 |
| AUACAGCAAUAUUACGUCAC | -3.13 ± 0.16 | -2.1 ± 0.17 |
| AUACAGCAAUAUUACGUCUA | -0.606 ± 0.078 | -0.238 ± 0.079 |
| AUACAGCAAUAUUACGUCUC | -2.98 ± 0.15 | -2.27 ± 0.14 |
| AUACAGCAAUAUUACGUCUU | -0.218 ± 0.059 | 0.336 ± 0.074 |
| AUAGAGCAAUAUUACGACAG | -2.6 ± 0.18 | -0.985 ± 0.2 |
| AUAGAGCAAUAUUACGACAU | 0.275 ± 0.013 | 0.437 ± 0.033 |
| AUAGAGCAAUAUUACGACCU | -1.41 ± 0.23 | -0.988 ± 0.21 |
| AUAGAGCAAUAUUACGACUA | -0.25 ± 0.073 | 0.211 ± 0.088 |
| AUAGAGCAAUAUUACGAGCU | -1.71 ± 0.18 | -1.15 ± 0.16 |
| AUAGAGCAAUAUUACGAGGA | -2.21 ± 0.23 | -2.16 ± 0.27 |
| AUAGAGCAAUAUUACGAUGC | – | -1.36 ± 0.32 |
| AUAGAGCAAUAUUACGCACC | -1.1 ± 0.35 | -1.41 ± 0.44 |
| AUAGAGCAAUAUUACGCAGG | -3.06 ± 0.2 | -1.86 ± 0.23 |
| AUAGAGCAAUAUUACGCGAU | -2.28 ± 0.35 | -2 ± 0.26 |
| AUAGAGCAAUAUUACGCGGU | -4.29 ± 0.35 | -1.64 ± 0.24 |
| AUAGAGCAAUAUUACGCUGG | -1.97 ± 0.14 | -1.62 ± 0.2 |

| Sequence | self-splicing fitness (ln) (30 °C) | self-splicing fitness (ln) (37 °C) |
| --- | --- | --- |
| AUAGAGCAAUAUUACGCUGU | -0.963 ± 0.11 | 0.0295 ± 0.14 |
| AUAGAGCAAUAUUACGGAAG | -2.48 ± 0.18 | -1.45 ± 0.21 |
| AUAGAGCAAUAUUACGGAUC | -2.96 ± 0.3 | -2.14 ± 0.31 |
| AUAGAGCAAUAUUACGGCAG | -2.15 ± 0.19 | -1.37 ± 0.16 |
| AUAGAGCAAUAUUACGGCGG | -1.71 ± 0.1 | -1.32 ± 0.13 |
| AUAGAGCAAUAUUACGGGAG | -4.25 ± 0.24 | -2.26 ± 0.22 |
| AUAGAGCAAUAUUACGGGUA | -2.89 ± 0.16 | -2.53 ± 0.24 |
| AUAGAGCAAUAUUACGGGUC | -3.75 ± 0.36 | -2.58 ± 0.24 |
| AUAGAGCAAUAUUACGGGUU | -2.43 ± 0.16 | -1.1 ± 0.17 |
| AUAGAGCAAUAUUACGGUGA | -1.49 ± 0.15 | -1.41 ± 0.19 |
| AUAGAGCAAUAUUACGUAGC | -3.16 ± 0.29 | -2.27 ± 0.3 |
| AUAGAGCAAUAUUACGUGAA | – | -1.07 ± 0.25 |
| AUAGAGCAAUAUUACGUGAC | -1.62 ± 0.23 | -1.6 ± 0.28 |
| AUAGAGCAAUAUUACGUGAG | -3.77 ± 0.21 | -2.42 ± 0.14 |
| AUAGAGCAAUAUUACGUGCA | -0.67 ± 0.069 | -0.162 ± 0.1 |
| AUAGAGCAAUAUUACGUGCC | -3.44 ± 0.41 | -1.69 ± 0.4 |
| AUAUAGCAAUAUUACGAAGG | -2.83 ± 0.3 | -2.3 ± 0.4 |
| AUAUAGCAAUAUUACGACAG | -2.12 ± 0.19 | -1.51 ± 0.27 |
| AUAUAGCAAUAUUACGAUAA | -1.38 ± 0.31 | -0.229 ± 0.39 |
| AUAUAGCAAUAUUACGCAUA | -2.02 ± 0.26 | -0.946 ± 0.26 |
| AUAUAGCAAUAUUACGCCAA | -1.24 ± 0.45 | -0.89 ± 0.42 |
| AUAUAGCAAUAUUACGCGUG | -1.1 ± 0.12 | -0.528 ± 0.14 |
| AUAUAGCAAUAUUACGGACG | -2.09 ± 0.16 | -1.07 ± 0.19 |
| AUAUAGCAAUAUUACGGGGG | -2.92 ± 0.36 | -0.973 ± 0.28 |
| AUAUAGCAAUAUUACGGUUC | -3.14 ± 0.17 | -2.5 ± 0.24 |
